This is an account of results in a protein production outcome set (Wang et al. 2014).

This series can be described thus: label from the status in PepcDB records.

As to “MNQVEMTEFPVGKPEEALYGVASTPDGALWFTLAKGNAIGRLSPDGEVSRFPLPHADGQPTTITCGPDGRPWFTLSSANAVGRLSPDGALRMFELPRPASRPFGIAAGHDGCLWFAEMAGDRIGRITIDGDIEEYDLPVKGGYPSCMAAGRDGLMWFTLNQAGAIGSISATAAPRIFPLGAADAAPVGIASDAQGALWIAQAGNGAIARFDAGGRITEFPLHSRAARPHALAADAAGNLWFTEWGANRIGRISEAGDTAGYELAAPGSEPHGIAIDPHGCVWAALETGSLVRLQASPRD”, the protein production entry is listed as “failed”.
The value for “MNQYVKIEVQQGDTLWSIADQVADTKKINKNDFIEWVADKNQLQTSDIQPGDELVIPLKKKHQDAYELATLEHHHHHH” was “failed”; that for “MNRDLSSFKRTMNTLAVSSDVAFFNITLRFWIRRNDETREQGKFKPHTDLPRLQSFYLDYYQKNVMDVIKIIGNQYTILKEIESSAHSAAIRAIHAALPPHKINGDSRKQADSYIQHACDTAGVLFRVLELLSEDVQLPSEFLEADADVKQLAEIFRPYNIIPLYICGKYSMKRLPEY” was “failed”; that for “MNREEVLKQLQSIFRDILKKDNVCIDESSTSKDVDGWDSLTHMQIIAQIEKHFGVRFNFREVIKFKNVGDLCSALLTKMELEHHHHHH” was “not failed”.
The value for “MNRISVVILNWNGCEMLRSFLPSVLRYSEAEGVEVCVADNGSTDQSVEMLRREFPSVRRILLDGNHGFADGYNLALRQVEAEYVVLLNSDVEVTGQWLQPMAAYLDAHPEVAACQPKIRSWRQKEWFEYAGAAGGFIDRYGYPFCRGRVMGVVEADRGQYDTVLPIFWATGAAMFIRLADYREAGGLDGRFFAHMEEIDLCWRLRARGRGIVCIPQSVVYHVGGATLKKENPHKTFLNFRNNLVMLYKNLPDRELAGVMRVRCWLDYIAAATFALKGQPANAKAVVRARREFKLLRDSFRDARAENLRKTSSHFIPERIKSSILVQFYVKGRKFFSQLSDLKG” was “failed”.
The value for “MNRIWLRAIILTASSALLAGCQFGGLNSLPLPGTAGHGEGAYSVTVEMADVATLPQNSPVMVDDVTVGSVAGIVAVQRPDGSFYAAVKLDLDKNVLLPANAVAKVSQTSLLGSLHVELAPPTDRPPTGRLVDGSRITEANTDRFPTTEEVFSALGVVVNKGNVGALEEIIDETHQAVAGRQAQFVNLVPRLAELTAGLNRQVHDIIDALDGLNRVSAILARDKDNLGRALDTLPDAVRVLNQNRDHIVDAFAALKRLTMVTSHVLAETKVDFGEDLKDLYSIVKALNDDRKDFVTSLQLLLTFPFPNFGIKQAVRGDYLNVFTTFDLTLRRIGETFFTTAYFDPNMAHMDEILNPPDFLIGELANLSGQAADPFKIPPGTASGQ” was “failed”; that for “MNRLKKWIRYVPDRIDDGLRYLCGRMSPDVRLVCVVVMLTGFGCLSIYMTVSSIYRIGRHEGEQLQMDHIRRMELYRGINKDSINIKNQVDYGEPKKSGTATGERCNA” was “failed”.
As for “MNRVYVGTVSAVTDIGVFVNLNKRLRGLIHRRNLGNNRFSEDEEILVQVSGIGLSGEIDLKPVKMDGYKVVEISKEVGRVEIAELENLEHHHHHH”, the protein production entry was “failed”.
The value for “MNSEFDVIDRYFTRPRRNALLGPGDDAALIACKPGMDWAISVDTLVAGRHFFPDVDPATLGHKVLAVNLSDMAAMGATPCWATLSLTLTETLAQDDIWLKAFSSGFFALADQYQVELIGGDTTGGPLNISVQIIGEVERGKALRRSGAQPGDDIWVSGHLGDAALALQSLQQHVTLTAQEAAPCLAALHTPMPRVALGKALVNVAHSAIDISDGLLADLGHILDRSGVAATIDFDHIPRSPALKNKLQPENTVTNTICQLAIDCLLAGGDDYELCFTVPESKRDAVIQLAQESGILLSRIGKIIPGKGLTVLGTDSNPLIFKNKGYDHFSAR” was “failed”; that for “MNSENHPATTFKSRIKSSLPYTLAVAIIGFVSLWVRMRPYDHVFLSNGFVKFTSNDPWYHIRTLNVLLENYPQRMFFNPMTNYPYGSYIHFGPLYDQMMAITSLILGLGSPSQDLINTVGAYFPAVLGALTVIPVYYIGKYLGGRKTGILAAVFIAFAPGQFLSRSLIGFTDHHVAESLFSTFFMMFFMLAIITAKKKNLRFEDLFNKNFIVVKEPLIYSIIAGVMYSAYQLSWPGASLFLFIALVYAVVQYILDNFNGESSDYLGFTGIITFLVSAILILPFIHPELGFSMYYYTWFHVATAIGTMAGFAALSLIQREFKNRNLKAYYYPLAIFLLGFLGLLAIRFASPSVYSLIISAPNTVFGVLTGGAATIGEVSSMFYYGGTFTLSRAFGNFTVSGFFASIIGLIILLVSVIRKAKPEEVLVLVWSILMLFAIYGQNRFAYYYSINVSILSAYIGGLLLEKVKWNELDEKFKSSVKSPADIPGFLKSFRAKQVLAVLAIAVFLIYPVYGAAMVQSTGSNDPDWAWIEACLWLKSSTPDPGMDYNAIYEAPEDGKLFDYPESAYGVMSWWDYGHYIETLGHRMPNANPFQAGIGGRRGSINETNVPGAAPFLTAQSEEEATEVLESIHPDPEKSGARYIMSDERMAVDIFMAMPEWTLDTEGYMQPYWTGDGYQYLPSKRYFDSMESRLHFLDGNGLKQYRLVYETWAYQTQEAGYKQVYNFLYGSSIPEVDSGYVKIFEYVKGAKITGTVSPNETVNINTTILTGQGRTFEYSQSTSSDSEGRYEFIVPYSTEGPIPGETQFDTAPTGAYVVSYGDTTTEVRVSEEAVLNGEEIKV” was “failed”; that for “MNSEQADILDLLSGHTDDTTIERLAFECLLTNMTDDRVVSLMNILGWQGDFNCFAIGGVPSASLASTSLAIRKAVRDLGGEHVVIGTYGTFLLALACQMGAVTPEVTCTAVMPAFSEDEPLYLSPVRSGVAGASHALRETMFSLQAAPALSTPSRPLRADELLPERALLGDDYAREELYRNVYQVLRGENPDDPTYLTVSTFLKYGSSLENTAKELNVHPNTVRYRLKRAAETTGWDATDPRDAYVLTTALAIGRMRDR” was “not failed”.
Under “MNSFKEGEYVLIRFGEKKFLRKLLPKQSLSVKKSVLKFDEVIGKPEGVKINGFEVYRPTLEEIILLGFERKTQIIYPKDSFYIALKLNLNKEKRVLEFGTGSGALLAVLSEVAGEVWTFEAVEEFYKTAQKNLKKFNLGKNVKFFNVDFKDAEVPEGIFHAAFVDVREPWHYLEKVHKSLMEGAPVGFLLPTANQVIKLLESIENYFGNLEVVEILHRHYKTISERFRPEDQMVAHTAYLVFGRKLKT” stands “not failed”; under “MNSGDNIIKKKSFTFAVRIVNLYKVLSSEIKEFVMSKQLLRSGTSVGANIREALNAQSKPGFIHKLAISQKECDETGYTNNVEFESMNTDAIELLKIVRSIIMTSKKNIIHNSLEHHHHHH”, “failed”; under “MNSHCSHTFITDNRSPRARRGHAMSTLHKVKAYFGMAPMEDYDDEYYDDRAPSRGYARPRFDDDYGRYDGRDYDDARSDSRGDLRGEPADYPPPGYRGGYADEPRFRPREFDRAEMTRPRFGSWLRNSTRGALAMDPRRMAMMFEDGHPLSKITTLRPKDYSEARTIGERFRDGSPVIMDLVSMDNADAKRLVDFAAGLAFALRGSFDKVATKVFLLSPADVDVSPEERRRIAETGFYAYQ”, “failed”.
Under “MNSILSSFKKNQKGIILILIASICTTIGQTLWKMSAMHNMLYILIGFFFYGIGAVGMIIALKYGSFSVIHPMMSMGYVFTIIVSYILLKESVGLGKIIGVILIMFGVAFIGLGDE” stands “failed”.
On to “MNSKSQQQEQQPIVFVTGTDTDVGKTFVSTLLVHKWKAAYWKPVQTGIESDQGDSETLKNFKIAASTWQPPIFTPTYALQKPLSPLQAMEYEPNVDIRLLDFVVPEEWSAENPLVVEGAGGVCVPITRKLEITTDLIKHLIETSGHPVYVVVVARSGLGTLNHTLLTWNHLCDNGLRSHLFGVILNGEPNEGNVQALKKFGVNIMAQVAQCTTAHDQDMELHELPSVESLMTQQDVE”, for which the protein production entry was “failed”.
